In PMC7324161, “Synergy between SIRT1 and SIRT6 helps recognize DNA breaks and potentiates the DNA damage response and repair in humans and mice” (eLife, 2020):
Each block holds one molecule with its values, some of them ahead of it. Where no end group is shown, it is not given here. [ ]: non-standard residue; d: D form. The star is where a group is joined. Biotin = O=C1N[C@H]2[C@H](CS[C@H]2CCCCC(=O)*)N1; pS = N[C@@H](COP(=O)(O)O)C(=O)O

Assays:
GST-SIRT6 K33R (human) = assay: fluorescence polarization; conditions: Pull-down: 10 mM Tris-Cl pH 7.5, 100 mM NaCl, 0.01% NP40, 10% glycerol, 4 C overnight, 10 pmol DNA and 0.5 ug protein in 300 ul; FP buffer not in material
GST-SIRT6 WT (human) = assay: fluorescence polarization; conditions: 20 nM FAM-DNA; Pull-down: 10 mM Tris-Cl pH 7.5, 100 mM NaCl, 0.01% NP40, 10% glycerol, 4 C overnight, 10 pmol DNA and 0.5 ug protein in 300 ul; FP buffer not in material
GST-SIRT6 K33R = target: T1, GST-SIRT6 K33R (human, UniProt Q8N6T7 1-355, K33R); assay: pull-down; 1 μg biotinylated peptide with 1 μg GST-SIRT6 in 50 mM Tris-HCl, 200 mM NaCl, 0.05% NP40 overnight at 4°C; Streptavidin Sepharose beads 1 hr at 4°C; western blot; conditions: both partners purified
T1 construct: SIRT6, human, lysine 33 to arginine, as GST fusion
T1 sequence (Q8N6T7 whole entry K33R, the tested form may be a part): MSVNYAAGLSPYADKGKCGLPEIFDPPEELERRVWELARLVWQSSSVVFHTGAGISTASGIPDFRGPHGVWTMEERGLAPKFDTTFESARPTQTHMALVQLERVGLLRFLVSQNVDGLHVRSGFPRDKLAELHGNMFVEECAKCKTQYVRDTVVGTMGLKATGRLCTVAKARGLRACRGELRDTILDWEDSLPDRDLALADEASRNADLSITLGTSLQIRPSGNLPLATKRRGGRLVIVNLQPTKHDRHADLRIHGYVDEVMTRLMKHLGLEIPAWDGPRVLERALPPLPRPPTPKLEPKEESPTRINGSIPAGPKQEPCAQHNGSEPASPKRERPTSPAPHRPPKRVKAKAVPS

Molecule: FAM-labeled DNA duplex
Kd (GST-SIRT6 K33R (human)): 105 nM | Kd (GST-SIRT6 WT (human)): 166 nM

binding result (GST-SIRT6 K33R): binds
B1: biotin-labeled C-terminal γH2AX peptide (peptide)
peptide: Biotin-GKKATQA[pS]QEY
notes: C terminus of H2AX, printed as BGKKATQApSQEY; also called biotin-γH2AXp; source: synthetic peptide (GL Biochem, Shanghai)
